Measured values published in PMC6453860.

B1: ASGP-R1 H1a (asialoglycoprotein receptor 1): N79Q (protein)
parent chain: MTKEYQDLQHLDNEESDHHQLRKGPPPPQPLLQRLCSGPRLLLLSLGLSLLLLVVVCVIGSQNSQLQEELRGLRETFSNFTASTEAQVKGLSTQGGNVGRKMKSLESQLEKQQKDLSEDHSSLLLHVKQFVSDLRSLSCQMAALQGNGSERTCCPVNWVEHERSCYWFSRSGKAWADADNYCRLEDAHLVVVTSWEEQKFVQHHIGPVNTWMGLHDQNGPWKWVDGTDYETGFKNWRPEQPDDWYGHGLGGGEDCAHFTDDGRWNDDVCQRPYRWVCETELDKASQEPPLL
B2: ASGP-R1 H1a (asialoglycoprotein receptor 1): N79Q/N147Q (protein)
parent chain: B1 parent chain
B3: ASGP-R1 H1a (asialoglycoprotein receptor 1): N147Q (protein)
parent chain: B1 parent chain

How the values were obtained:
Details in all cases: glycan lost; control: wild-type ASGP-R1 in U87 cells
[1] = Western blot quantification normalised to tubulin
[2] = SMN2 exon 7 inclusion RT-PCR, 0-30 µM dose response
[3] = SMN2 exon 7 inclusion RT-PCR, single 30 nM dose

| Protein | expression_or_secretion [1] | other: receptor-mediated GN3-ASO uptake and activity, fold_change [2] | other: receptor-mediated GN3-ASO uptake and activity [3] |
| --- | --- | --- | --- |
| B1 | no change | no change | no change |
| B2 | no change | – | no change |
| B3 | no change | no change | no change |
